The results in this text go back to patent US20110262949A1.

In data set [1] the target is T1, wt β2 (E. coli class I ribonucleotide reductase subunit β2), P69924.
T1 chain: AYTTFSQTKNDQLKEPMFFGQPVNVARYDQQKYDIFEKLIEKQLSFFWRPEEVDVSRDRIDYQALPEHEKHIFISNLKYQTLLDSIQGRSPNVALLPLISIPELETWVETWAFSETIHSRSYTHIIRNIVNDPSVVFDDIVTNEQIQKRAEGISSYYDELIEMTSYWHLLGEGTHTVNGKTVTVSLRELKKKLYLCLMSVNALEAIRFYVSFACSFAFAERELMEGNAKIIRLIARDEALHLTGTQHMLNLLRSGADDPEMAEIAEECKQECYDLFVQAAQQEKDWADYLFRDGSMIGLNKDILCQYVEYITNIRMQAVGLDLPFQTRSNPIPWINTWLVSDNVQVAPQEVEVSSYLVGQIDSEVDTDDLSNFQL

Data set [2] addresses wt β2 (E. coli class I ribonucleotide reductase subunit β2) (E. coli) (UniProt P69924). The experiment in a line: cell-based or functional assay.

B1: Y730NH2Y-α2 (E. coli class I ribonucleotide reductase subunit α2 with 3-aminotyrosine at residue 730) (protein)
chain: MNQNLLVTKRDGSTERINLDKIHRVLDWAAEGLHNVSISQVELRSHIQFYDGIKTSDIHETIIKAAADLISRDAPDYQYLAARLAIFHLRKKAYGQFEPPALYDHVVKMVEMGKYDNHLLEDYTEEEFKQMDTFIDHDRDMTFSYAAVKQLEGKYLVQNRVTGEIYESAQFLYILVAACLFSNYPRETRLQYVKRFYDAVSTFKISLPTPIMSGVRTPTRQFSSCVLIECGDSLDSINATSSAIVKYVSQRAGIGINAGRIRALGSPIRGGEAFHTGCIPFYKHFQTAVKSCSQGGVRGGAATLFYPMWHLEVESLLVLKNNRGVEGNRVRHMDYGVQINKLMYTRLLKGEDITLFSPSDVPGLYDAFFADQEEFERLYTKYEKDDSIRKQRVKAVELFSLMMQERASTGRIYIQNVDHCNTHSPFDPAIAPVRQSNLCLEIALPTKPLNDVNDENGEIALCTLSAFNLGAINNLDELEELAILAVRALDALLDYQDYPIPAAKRGAMGRRTLGIGVINFAYYLAKHGKRYSDGSANNLTHKTFEAIQYYLLKASNELAKEQGACPWFNETTYAKGILPIDTYKKDLDTIANEPLHYDWEALRESIKTHGLRNSTLSALMPSETSSQISNATNGIEPPRGYVSIKASKDGILRQVVPDYEHLHDAYELLWEMPGNDGYLQLVGIMQKFIDQSISANTNYDPSRFPSGKVPMQQLLKDLLTAYKFGVKTLYYQNTRDGAEDAQDDLVPSIQDDGCESGACKI
Consider B1, for which, in data set [1], the “1st Phase kobs (SF UV-vis, NH2Y• formation / Y122• loss, with CDP/ATP)” value is listed as 12.8 ± 0.8, 20 ± 1; the “rate constant of NH2Y. formation at 325 nm, fast phase” value was found to be 13.6 ± 0.1 s⁻¹; the “rate constant of NH2Y. formation at 325 nm, slow phase” value worked out at 2.5 ± 0.1 s⁻¹; the “rate constant of Y122. loss at 410 nm, fast phase” value stood at 12.0 ± 0.1 s⁻¹. In data set [1], the “rate constant of Y122. loss at 410 nm, slow phase” value came out at 2.4 ± 0.1 s⁻¹. Besides, the “2nd Phase kobs (SF UV-vis, NH2Y• formation / Y122• loss, with CDP/ATP)” value in data set [1] (in 1/s) is 2.5 ± 0.1, 19 ± 1.

B2: Y730NH2Y-α2 (E. coli class I ribonucleotide reductase subunit α2 with 3-aminotyrosine at residue 730) (enzyme, UniProt P00452 1-761, looked up)
chain: MNQNLLVTKRDGSTERINLDKIHRVLDWAAEGLHNVSISQVELRSHIQFYDGIKTSDIHETIIKAAADLISRDAPDYQYLAARLAIFHLRKKAYGQFEPPALYDHVVKMVEMGKYDNHLLEDYTEEEFKQMDTFIDHDRDMTFSYAAVKQLEGKYLVQNRVTGEIYESAQFLYILVAACLFSNYPRETRLQYVKRFYDAVSTFKISLPTPIMSGVRTPTRQFSSCVLIECGDSLDSINATSSAIVKYVSQRAGIGINAGRIRALGSPIRGGEAFHTGCIPFYKHFQTAVKSCSQGGVRGGAATLFYPMWHLEVESLLVLKNNRGVEGNRVRHMDYGVQINKLMYTRLLKGEDITLFSPSDVPGLYDAFFADQEEFERLYTKYEKDDSIRKQRVKAVELFSLMMQERASTGRIYIQNVDHCNTHSPFDPAIAPVRQSNLCLEIALPTKPLNDVNDENGEIALCTLSAFNLGAINNLDELEELAILAVRALDALLDYQDYPIPAAKRGAMGRRTLGIGVINFAYYLAKHGKRYSDGSANNLTHKTFEAIQYYLLKASNELAKEQGACPWFNETTYAKGILPIDTYKKDLDTIANEPLHYDWEALRESIKTHGLRNSTLSALMPSETSSQISNATNGIEPPRGYVSIKASKDGILRQVVPDYEHLHDAYELLWEMPGNDGYLQLVGIMQKFIDQSISANTNYDPSRFPSGKVPMQQLLKDLLTAYKFGVKTLYYQNTRDGAEDAQDDLVPSIQDDGCESGACKI
modifications: 3-aminotyrosine (NH2Y) at position 730 in place of Tyr (E. coli RNR numbering)
B2: in data set [2], the 1st Phase Ampl (% of total initial Y122• trapped) was determined as 20%; the 2nd Phase Ampl (% of total initial Y122• trapped) worked out at 19%; the EPR spin quantitation at 10 s with CDP/ATP: share of remaining spin in the new signal (NH2Y730.) worked out at 53%; the [NH2Y•] at 20 s in the reaction with β2 and N3ADP/dGTP (EPR) was 7.6 µM. In data set [2], this molecule yielded a total initial Y122. consumed at 2 s of 39%.

B3: Y731NH2Y-α2 (E. coli class I ribonucleotide reductase subunit α2 with 3-aminotyrosine at residue 731) (enzyme, UniProt P00452 1-761, looked up)
chain: MNQNLLVTKRDGSTERINLDKIHRVLDWAAEGLHNVSISQVELRSHIQFYDGIKTSDIHETIIKAAADLISRDAPDYQYLAARLAIFHLRKKAYGQFEPPALYDHVVKMVEMGKYDNHLLEDYTEEEFKQMDTFIDHDRDMTFSYAAVKQLEGKYLVQNRVTGEIYESAQFLYILVAACLFSNYPRETRLQYVKRFYDAVSTFKISLPTPIMSGVRTPTRQFSSCVLIECGDSLDSINATSSAIVKYVSQRAGIGINAGRIRALGSPIRGGEAFHTGCIPFYKHFQTAVKSCSQGGVRGGAATLFYPMWHLEVESLLVLKNNRGVEGNRVRHMDYGVQINKLMYTRLLKGEDITLFSPSDVPGLYDAFFADQEEFERLYTKYEKDDSIRKQRVKAVELFSLMMQERASTGRIYIQNVDHCNTHSPFDPAIAPVRQSNLCLEIALPTKPLNDVNDENGEIALCTLSAFNLGAINNLDELEELAILAVRALDALLDYQDYPIPAAKRGAMGRRTLGIGVINFAYYLAKHGKRYSDGSANNLTHKTFEAIQYYLLKASNELAKEQGACPWFNETTYAKGILPIDTYKKDLDTIANEPLHYDWEALRESIKTHGLRNSTLSALMPSETSSQISNATNGIEPPRGYVSIKASKDGILRQVVPDYEHLHDAYELLWEMPGNDGYLQLVGIMQKFIDQSISANTNYDPSRFPSGKVPMQQLLKDLLTAYKFGVKTLYYQNTRDGAEDAQDDLVPSIQDDGCESGACKI
modifications: 3-aminotyrosine (NH2Y) at position 731 in place of Tyr (E. coli RNR numbering)
On to B3, for which, in data set [2], the 1st Phase Ampl (% of total initial Y122• trapped) came to 24%; the 2nd Phase Ampl (% of total initial Y122• trapped) was determined as 11%; the EPR spin quantitation at 10 s with CDP/ATP: share of remaining spin in NH2Y731. came to 45%; the [NH2Y•] at 20 s in the reaction with β2 and N3ADP/dGTP (EPR) turned out to be 7.1 µM. This molecule had a total initial Y122. consumed at 2 s in data set [2] of 35%.
